For the test, the target named is T1, human dominant-negative Gαi1 (S47N, G203A, A326S and E245A) (human, UniProt P63096 1-354, S47N | G203A | A326S | E245A).
T1 construct: The alpha-helical domain had no clear density in the map; also called Gα subunit; Gαi subunit; source: Sf9 cells co-infected with baculoviruses encoding each component; co-purified with the BLT1/Gi complex
Kind of test: cryo-EM structure; single-particle cryo-EM of the LTB4-bound BLT1/Gi complex (with scFv16, NanoBiT tether); components co-expressed in Sf9, complex purified on amylose, TEV cut, gel filtration in 25 mM Hepes pH 7.5, 150 mM NaCl, LMNG/GDN/CHS; LTB4 300 nM throughout. Particulars: both partners purified. (SEC sorts molecules by how far they enter the pores of the column.)

T1 sequence (P63096 whole entry S47N/G203A/E245A/A326S, the tested form may be a part): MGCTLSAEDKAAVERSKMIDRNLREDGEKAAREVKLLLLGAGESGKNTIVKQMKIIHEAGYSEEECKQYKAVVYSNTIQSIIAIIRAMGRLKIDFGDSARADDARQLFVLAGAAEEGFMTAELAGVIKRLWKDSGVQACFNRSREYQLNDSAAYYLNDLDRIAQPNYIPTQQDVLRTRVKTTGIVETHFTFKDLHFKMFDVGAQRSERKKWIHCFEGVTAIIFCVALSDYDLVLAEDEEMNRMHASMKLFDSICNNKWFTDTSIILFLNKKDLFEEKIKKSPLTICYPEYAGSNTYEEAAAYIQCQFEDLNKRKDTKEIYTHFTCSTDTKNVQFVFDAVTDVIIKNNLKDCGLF

B1: engineered human leukotriene B4 receptor 1 (BLT1) with 4 thermostabilizing mutations and a C-terminal LgBiT fusion (receptor)
chain: MNTTSSAAPPSLGVEFISLLAIILLSVALAVGLPGNSFVVWSILKRMQKRSVTALMVLNLALADLAVLLTAPFFLHFLAQGTWSFGLAGCRLCHYVCGVSMYASVWLITAMSLDRSLAVARPFVSQKLRTKAMARRVLAGIWVLSFLLATPVLAYRTVVPWKTNMSLCFPRYPSEGHRAFHLIFEAVTGFLLPFLIVVASYSDIGRRLQARRFRRSRRTGRLVVLIILTFAAFWLPYHVVNLAEAGRALAGQAAGLGLVGKRLSLARNVLIALAFLSSSVNPVLYAFAGGGLLRSAGVGFVAKLLEGTGAEASSTRRGGSLGQTARSGPAALEPGPSESLTASSPLKLNELN
notes: human leukotriene B4 receptor 1 (BLT1), codon-optimized gene; model lacks the first 14 residues and the C-tail after residue 301; A TEV site stands between LgBiT and 2x MBP; LgBiT on the receptor pairs with HiBiT on Gbeta1 (NanoBiT tethering strategy); also called BLT1R; the receptor; source: Sf9 cells co-infected with baculoviruses encoding each component; complex purified (amylose column, TEV …)
As for B1, the binding result was “binds”.
